Assay results taken from the nanobody polyreactivity screen of Harvey et al. (2022).

Test: yeast display, Sf9 membrane polyspecificity reagent, FACS + sequencing; frameworks hold sequencing errors
In short: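 After 36–48 hours of galactose induction, yeast (Saccharomyces cerevisiae BJ5465) displaying a synthetic nanobody library were stained at 4 °C for 1 hour with 10% biotinylated, detergent-solubilized Sf9 membrane reagent. Streptavidin microbeads enriched the stained cells before FACS sorting into low and high (top ~1%) gates on anti-HA and streptavidin fluorescence. Each clone's polyreactivity label reflects its gate of origin.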

Row | Sequence | polyreactivity (PSR sort gate)
1 | QVQLVESGGGLVQAGGSLRLSCAASGSTFGPYAMGWYRQAPGKERELVAAITWNGGSTYYADSVKGRFTISRDNAKNSVYLQMNSLKPEDTAVSFCNAVGSYGDFGYWGQGTQVTVSS | high polyreactivity
2 | QVQLVESGGGLVQAGGSLRLSCAASGSTFGPYAMGWYRQAPGKERELVADITVSDGSTYYADSVKGRFTISRDNAKNTVYLQMNSLKPEHTAVYYCAAEIYYSFGYWGQGTQVTVSS | low polyreactivity
3 | QVQLVESGGGLVQAGGSLRLSCAASGSTFGPYVMRWYRQAPGKERELVAGISSSGGSTYYADSVKGRFTISRDNAKNTVYLQMNSLKPEDTAVYYCAAVWTTGWIDSYTAWYSYEYWGQGTQVTVSS | low polyreactivity
4 | QVQLVESGGGLVQAGGSLRLSCAASGSTFGRNTMGWYRQAPGKERELVAAISKSGGSTRYADSVKGRFTISRDNAKNTVYLQMNSVKPEDTAVYYCAARVYSLGYGGDYWGQGTQVTVSS | high polyreactivity
5 | QVQLVESGGGLVQAGGSLRLSCAASGSTFGRSVMGWYRQAPGNVRELVGAISRRGGSTYYADSVKGRFTISRDNAKKTVYIQLHSRKPEDPAVYYSPVDGARSGEPYDSMDYWGQGTHVTVSS | high polyreactivity
6 | QVQLVESGGGLVQAGGSLRLSCAASGSTFGRYAMGWYRQAPGKERELVAAINFNGGRTYYADSVKGRFTISRDNAKNTVYLQMNSLKPEDTAVYYCNALQQYALSRYYWGQGTQVTVSS | high polyreactivity
7 | QVQLVESGGGLVQAGGSLRLSCAASGSTFGRYAMGWYRQAPGKERELVAAITRGGSTNYADSVKGRFTISRDNAKNTVYLPMNSLKPEDTAVYYCAADKPGIFSRFDYWGQGTQVTVSS | low polyreactivity
8 | QVQLVESGGGLVQAGGSLRLSCAASGSTFGRYAMGWYRQAPGKEREMVAGITYGSTYYADSVKGRFTISRDNAKNTVYLQMNSLKPEDTAVYYCAADLSYTCVHGYRSDTLMDYWGQGTQVTVSS | low polyreactivity
9 | QVQLVESGGGLVQAGGSLRLSCAASGSTFGSNAMGWYRQAPGKERELVAAITGGDVSTYYADSVKGRFTISRDNAKNTDYLQMNSLKPEDTAVYYCNAEYARPAMDYWGQGTQVTVSS | low polyreactivity
10 | QVQLVESGGGLVQAGGSLRLSCAASGSTFGSYAMGLYRQAPGKERELVAAITQIGGSTYYADSVKGRFTISRDNAKNTVYLQMNSLKPEDTAVYYCAVTAGRGGYPQGGVTRGYWGQGTQVTVSS | high polyreactivity
11 | QVQLVESGGGLVQAGGSLRLSCAASGSTFGSYAMGWYRQAPGKEREFVATINTSNDRTYYADSVKGRFTISRDKAKNTVYLQMNSLKPEDTAVYYSNVLVYNVHTRGYWGQGTQVTVSS | high polyreactivity
12 | QVQLVESGGGLVQAGGSLRLSCAASGSTFGSYAMGWYRQAPGKERELVAAIRRGGSTTYADSVKGRFTISRDNAKNTVYLQMYSLKPEDTAVYYCAAPELNEGLPLDYWGQGTQVTVSS | low polyreactivity
13 | QVQLVESGGGLVQAGGSLRLSCAASGSTFGSYAMGWYRQAPGKERELVAAITQIGGSTYYADSVKGRFTISRDKAKNTVYLQMNSLKPEDTAVYYCAARYRYPGYYYWGQGTQVTVSS | high polyreactivity
14 | QVQLVESGGGLVQAGGSLRLSCAASGSTFGSYGMGWYRQAPGKEREVVAVITYSGDRTYYADSVKGRFTISRDNAKNTVYLQMNSLKPEDTAVYYCAADRSYRVSEYDYWGQGTQVTVSS | low polyreactivity
15 | QVQLVESGGGLVQAGGSLRLSCAASGSTFGTYAMGWYRQAPGKERELVAAISRRGGSTYYADSVKGRFTISRDNAKNTVYLQMNSLKPEDTAVDYCAARNFHPDDNYWGQGTQVTVSS | high polyreactivity
16 | QVQLVESGGGLVQAGGSLRLSCAASGSTFGVNAMGWYRQAPGKERELVAAISSSGSSTYADSVKGRFTISRDNAKNTVYLQMNSLKPEDTAVYYCAAQSPAYYTKSYWGQGTQVTVSS | low polyreactivity
17 | QVQLVESGGGLVQAGGSLRLSCAASGSTFGVNAMGWYRQAPGKERELVAAISSSGSSTYADSVKGRFTISRDNAKNTVYLQMNSLKPEDTAVYYCNKTTLLTVEYDYWGQGTQVTVSS | low polyreactivity
18 | QVQLVESGGGLVQAGGSLRLSCAASGSTFGVNAMGWYRQAPGKERELVAAITRRGSSTYYADSVKGRFTNSRDNAKNTVYLQMNSLKPEDTAVYFCAADLHYRPGFRYGYWGQGTQVTVSS | high polyreactivity
19 | QVQLVESGGGLVQAGGSLRLSCAASGSTFGVNAMGWYRQAPGKERELVAAITWSGDTTYYADSVKGRFTISRDNAKNTVYLQMNSLKPEDSAVYYCATYYYYPSWYLLYGDYNYWGQGTQVTVSS | low polyreactivity
20 | QVQLVESGGGLVQAGGSLRLSCAASGSTFGVNAMGWYRQAPGKERELVASIRKRGGTTYYADSVKGRFTISRDNAKNTVYLQMNSLKPEDTAVYYCAAQYGDEVDYWGQGTQVTVSS | high polyreactivity
21 | QVQLVESGGGLVQAGGSLRLSCAASGSTFGVYAMGWYRQAPGKDRELVAAISRSGGRTYYADSVKGRFTISRDNAKNSVYLQMNSLKPEDTAVYYCALYGGLGDRFRPRYYWGQGTQVTVSS | high polyreactivity
22 | QVQLVESGGGLVQAGGSLRLSCAASGSTFGVYAMGWYRQAPGKERELVAAIRWSSGSTYYADSVKGRFTISRDNAKNTVYLQMNSLKPEDTAVYYCAKTRGIYNIRFGYWGQGTQVTVSS | high polyreactivity

Row | Sequence | polyreactivity (PSR sort gate)
23 | QVQLVESGGGLVQAGGSLRLSCAASGSTFGWYAMGWYRQAPGKERELVASITWDGGRTYYADSVKGRFTISRDNAKNTVYLLMNSLKPEDTAVYYCAARGVSSPLNYWGQGTQVTVSS | low polyreactivity
24 | QVQLVESGGGLVQAGGSLRLSCAASGSTFGWYTMGWYRQSPGKERELVAAITSRGTRTSYADSVKGRFTISRDYAKNTVYLQMNSLKPEDTAVYYCAARVFRGLGEYYWGQGTQVTVSS | high polyreactivity
25 | QVQLVESGGGLVQAGGSLRLSCAASGSTFGWYVMGWYRQAPGKERELVAAISQRGGRTYYADSVKGRFSISRDNAKNTVYLQMNSLKPEDTAVYYCAAPGVRVGPTFPRQGYDYWGQGTQVTVSS | high polyreactivity
26 | QVQLVESGGGLVQAGGSLRLSCAASGSTFGWYVMGWYRQAPGKEREYVASISGSGGSTYYADSVKGRFTISRDNAKNTVYLQMNSLKPEDTAVYYCAAETGWYDDWSIYDYWGHGTQVTVSS | low polyreactivity
27 | QVQLVESGGGLVQAGGSLRLSCAASGSTFGWYVMGWYRQAPGTERELVASITGSGGSTYYADSVKGRFTISRDNAKNTVYLQMNSLKPVDSAVYYCGADTGWYDDWTHDYWGQGTQVTVSS | low polyreactivity
28 | QVQLVESGGGLVQAGGSLRLSCAASGSTFGYNAMGWYRPAPGKERELVAAISWNGGSTYYADSVKGRFTISRDNAKTTVYLQMNSLKPEDTAVYYCAAEHRGYFTRYDYWGQGTQVTVSS | low polyreactivity
29 | QVQLVESGGGLVQAGGSLRLSCAASGSTFGYNAMGWYRQAPGKERELVADITWRGGRTYYADSVKGRFTISRDNAKNTVYLQMNSLKPEDTAVYYCAATSRGSGQRPGEAIIDYYYWGLGTQVTVSS | high polyreactivity
30 | QVQLVESGGGLVQAGGSLRLSCAASGSTFGYNGMGWYRQAPGKVRELVAAISGGARTYADSVKGRFTISRDNAKNTVYLQMNSLKPEDTAVYYCAADSPVSVTADDGYWGQGTQVTVSS | low polyreactivity
31 | QVQLVESGGGLVQAGGSLRLSCAASGSTFGYYAMGWYRQAPGKEREFVAAITYGDGNTYYADSVKGRFTISRDNAKNTVYLQMNSLKPEDTAVYYCAKYYWAPTGAHGGYGYWGQGTQVTVSS | low polyreactivity
32 | QVQLVESGGGLVQAGGSLRLSCAASGSTFGYYAMGWYRQAPGKERELVAAISYNTGSTYYADSVKGRFTISRDNAKNTVYLQMNSLKPEDTAVFYCAASRSRYSVNWYNYWGQGTQVTVSS | high polyreactivity
33 | QVQLVESGGGLVQAGGSLRLSCAASGSTFGYYAMGWYRQAPGKERELVATINRSGGSTYYADSVKGRFSISRDNAKNTVYLQMNSLKPEDTAVYYCNKLAYAGFGYIGSGYWGQGTQVTVSS | low polyreactivity
34 | QVQLVESGGGLVQAGGSLRLSCAASGSTFGYYAMGWYRQAPGKERELVAVIRRGGSTNYADSVKGRFTISRDNAKNTVYLQMNSLKPEDTAVYYCAKSQRGTVYSYYYWGQGTQVTVSS | high polyreactivity
35 | QVQLVESGGGLVQAGGSLRLSCAASGSTFGYYAMGWYRQAPGKERELVAVITSGGSTYYADSVKGRFTISRDNAKNTVFLQMNSLKPEDTAVYYCYARVQAVHYGYWGQGTQVTVSS | high polyreactivity
36 | QVQLVESGGGLVQAGGSLRLSCAASGSTFGYYAMRWSRQAPGKERELVAAISGSGGSTYYADSVKGRFTISRDNAKNTVYLQMNSLKQEDTAVYYCATSWAGSEYYYWGQGTQVTVSS | high polyreactivity
37 | QVQLVESGGGLVQAGGSLRLSCAASGSTFGYYTMGWYRQAHGKERELVAAISWGCGSTYYADSVKGRFTISRDNAKNTVYLQMNSLIPEDTAVYYCARTPVTSYKDDFYYWGQGTQVTVSS | low polyreactivity
38 | QVQLVESGGGLVQAGGSLRLSCAASGSTFGYYTMGWYRQAPGKERELVAAISWSGGSTYYADSVKGRFTISRDNAKNTVYLQMNSLKPEDTAVYYCAALGYTYKYYSYYWGQGTQVTVSS | high polyreactivity
39 | QVQLVESGGGLVQAGGSLRLSCAASGSTFGYYTMGWYRQAPGKERELVAAITWSGGSTYYADSVKGRFTISRDNAKNTVYLQMNSLKPEDTAVYYCADDDYWTPFGYWGQGTQVTVSS | low polyreactivity
40 | QVQLVESGGGLVQAGGSLRLSCAASGSTFGYYTMGWYRQAPGKERELVASIDVSGDSTSYADSVKGRFTISRDNAKNTVYVQMNSLKPEDTAVYYCNTGRYPTSPTHNYWGQGTHVTVSS | low polyreactivity
41 | QVQLVESGGGLVQAGGSLRLSCAASGSTFHGYTIGWSRQAPGKERELVAAISSRGTSTYYADSVKGRFTISRDNAMNTVYLQMNSLKTEDTAVYYCATRGWDKYWGQGTQVTVSS | high polyreactivity
42 | QVQLVESGGGLVQAGGSLRLSCAASGSTFHLYAMGWNRQAPGKEREFVAAIRGRGGNTYADSVKGRFTISRDNAKNSGYLQMNSLKPEDTAVYYCAARTHYDSDYWGQGTQVTVSS | low polyreactivity
43 | QVQLVESGGGLVQAGGSLRLSCAASGSTFHLYAMGWYRQAPGKEREFVAAIRGRGGNTYADSVKGRFTISRDNAKNTVYLQMHSLKPEDTAVYYCAAPLLRDLRSPYSYNYWGQGTQVTVSS | low polyreactivity
